Patent publication US20230390362A1, “USE OF TRIGONAL AGONIST HAVING ACTIVITIES TO ALL OF GLUCAGON, GLP-1, AND GIP RECEPTORS IN TREATMENT OF SEQUELAE FOLLOWING RESPIRATORY INFECTIOUS DISEASES” (HANMI PHARM. CO., LTD., priority 2020, published 2023)
Positions of bridges follow the written chain, without caps; N, C: chain ends. Non-standard residues stand in square brackets, D forms with d. No end group written: not given here. *: point of attachment. Acetyl(2-(4-imidazolyl)) = O=C(Cc1c[nH]cn1)*; Aib = CC(C)(N)C(=O)O

molecular target: human GLP-1 receptor (human, UniProt P43220 24-463); experiment: cell-based or functional assay

Row | Binder | In vitro activity relative to native peptide (%), vs. GLP-1 (cAMP EC50)
1 | {Acetyl(2-(4-imidazolyl))}-[Aib]EGTFTSDYSIAMDEIHQKDFVDWLLAEC (bridge 15-19) [trigonal agonist of SEQ ID NO: 84] | 4.2%
2 | {Acetyl(2-(4-imidazolyl))}-[Aib]QGTFTSDYSKYLDEKRQKEFVQWLLDTKC (bridge 15-19) [trigonal agonist of SEQ ID NO: 89] | 7.1%
3 | {Acetyl(2-(4-imidazolyl))}-[Aib]QGTFTSDYSKYLDEKRQKEFVNWLLAQKC (bridge 15-19) [trigonal agonist of SEQ ID NO: 93] | 5.7%
4 | {Acetyl(2-(4-imidazolyl))}-[Aib]QGTFTSDYSIAMDEIHQKDFVNWLLNTC (bridge 15-19) [trigonal agonist of SEQ ID NO: 87] | 0.9%
5 | {Acetyl(2-(4-imidazolyl))}-[Aib]EGTFTSDYSIAMDEIHQKDFVNWLLAQC (bridge 15-19) [trigonal agonist of SEQ ID NO: 83] | 47.3%
6 | Y[Aib]QGTFTSDYSKYLDEKRAKEFVQWLLDHCPSSGQPPPS (bridge 16-20) [trigonal agonist of SEQ ID NO: 96] | 34.4%
7 | {Acetyl(2-(4-imidazolyl))}-[Aib]EGTFTSDYSIAMDEIHQKDFVNWLLAQKC (bridge 15-19) [trigonal agonist of SEQ ID NO: 90] | 7.4%
8 | H[Aib]QGTFTSDVSKYLDGQAAQEFVAWLLAGC [trigonal agonist of SEQ ID NO: 9] | 32.1%
9 | {Acetyl(2-(4-imidazolyl))}-[Aib]QGTFTSDYSKYLDEKRQKEFVQWLLNTKC (bridge 15-19) [trigonal agonist of SEQ ID NO: 88] | 9.6%
10 | {Acetyl(2-(4-imidazolyl))}-[Aib]EGTFTSDYSIAMDEIHQKDFVDWLLAEKC (bridge 15-19) [trigonal agonist of SEQ ID NO: 91] | 31.9%
11 | {Acetyl(2-(4-imidazolyl))}-[Aib]QGTFTSDYSKYLDEKRQKEFVNWLLAQC (bridge 15-19) [trigonal agonist of SEQ ID NO: 86] | 28.4%
12 | {Acetyl(2-(4-imidazolyl))}-[Aib]QGTFTSDYSKYLDEKRQKEFVQWLLDTC (bridge 15-19) [trigonal agonist of SEQ ID NO: 82] | 9.5%
13 | Y[Aib]QGTFTSDYSKYLDEKRAKEFVQWLLCHHPSSGQPPPS (bridge 16-20) [trigonal agonist of SEQ ID NO: 95] | 2.1%
14 | H[Aib]QGTFTSDVSKYLDGQAAQEFVAWLLAGGGPSSGAPPPSC [trigonal agonist of SEQ ID NO: 10] | 46%
15 | {Acetyl(2-(4-imidazolyl))}-[Aib]QGTFTSDYSKYLDEKRQKEFVQWLLNTC (bridge 15-19) [trigonal agonist of SEQ ID NO: 81] | 7.8%
16 | {Acetyl(2-(4-imidazolyl))}-[Aib]QGTFTSDYSIAMDEIHQKDFVNWLLAQC (bridge 15-19) [trigonal agonist of SEQ ID NO: 85] | 4.3%
17 | {Acetyl(2-(4-imidazolyl))}-[Aib]QGTFTSDYSIAMDEIHQKDFVNWLLNTKC (bridge 15-19) [trigonal agonist of SEQ ID NO: 94] | 0.5%
18 | H[Aib]EGTFTSDYSIAMDEIHQKDFVDWLLAEKC (bridge 16-20) [trigonal agonist of SEQ ID NO: 80] | 8.1%
19 | {Acetyl(2-(4-imidazolyl))}-[Aib]QGTFTSDYSIAMDEIHQKDFVNWLLAQKC (bridge 15-19) [trigonal agonist of SEQ ID NO: 92] | 0.8%

molecular target: human GCG receptor (human, UniProt P47871 26-477); experiment: cell-based or functional assay
Sequence (P47871 26-477): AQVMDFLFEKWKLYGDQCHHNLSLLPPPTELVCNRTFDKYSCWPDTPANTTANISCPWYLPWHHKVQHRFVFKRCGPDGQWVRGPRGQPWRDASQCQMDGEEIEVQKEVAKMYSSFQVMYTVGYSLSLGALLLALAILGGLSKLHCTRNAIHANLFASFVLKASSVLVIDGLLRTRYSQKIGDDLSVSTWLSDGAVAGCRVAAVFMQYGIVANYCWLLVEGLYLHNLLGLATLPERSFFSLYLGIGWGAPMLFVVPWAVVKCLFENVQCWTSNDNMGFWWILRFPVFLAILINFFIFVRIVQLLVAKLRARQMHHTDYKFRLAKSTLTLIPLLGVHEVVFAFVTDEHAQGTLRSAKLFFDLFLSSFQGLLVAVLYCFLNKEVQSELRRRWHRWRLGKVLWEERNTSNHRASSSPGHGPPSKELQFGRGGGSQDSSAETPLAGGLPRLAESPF

Row | Binder | In vitro activity relative to native peptide (%), vs. Glucagon (cAMP EC50)
20 | {Acetyl(2-(4-imidazolyl))}-[Aib]EGTFTSDYSIAMDEIHQKDFVDWLLAEC (bridge 15-19) [trigonal agonist of SEQ ID NO: 84] | < 0.1%
21 | {Acetyl(2-(4-imidazolyl))}-[Aib]QGTFTSDYSKYLDEKRQKEFVQWLLDTKC (bridge 15-19) [trigonal agonist of SEQ ID NO: 89] | 0.7%
22 | {Acetyl(2-(4-imidazolyl))}-[Aib]QGTFTSDYSKYLDEKRQKEFVNWLLAQKC (bridge 15-19) [trigonal agonist of SEQ ID NO: 93] | 0.3%
23 | {Acetyl(2-(4-imidazolyl))}-[Aib]QGTFTSDYSIAMDEIHQKDFVNWLLNTC (bridge 15-19) [trigonal agonist of SEQ ID NO: 87] | < 0.1%
24 | {Acetyl(2-(4-imidazolyl))}-[Aib]EGTFTSDYSIAMDEIHQKDFVNWLLAQC (bridge 15-19) [trigonal agonist of SEQ ID NO: 83] | 1.3%
25 | Y[Aib]QGTFTSDYSKYLDEKRAKEFVQWLLDHCPSSGQPPPS (bridge 16-20) [trigonal agonist of SEQ ID NO: 96] | 195%
26 | {Acetyl(2-(4-imidazolyl))}-[Aib]EGTFTSDYSIAMDEIHQKDFVNWLLAQKC (bridge 15-19) [trigonal agonist of SEQ ID NO: 90] | < 0.1%
27 | H[Aib]QGTFTSDVSKYLDGQAAQEFVAWLLAGC [trigonal agonist of SEQ ID NO: 9] | 0.13%
28 | {Acetyl(2-(4-imidazolyl))}-[Aib]QGTFTSDYSKYLDEKRQKEFVQWLLNTKC (bridge 15-19) [trigonal agonist of SEQ ID NO: 88] | 0.3%
29 | {Acetyl(2-(4-imidazolyl))}-[Aib]EGTFTSDYSIAMDEIHQKDFVDWLLAEKC (bridge 15-19) [trigonal agonist of SEQ ID NO: 91] | 16.8%
30 | {Acetyl(2-(4-imidazolyl))}-[Aib]QGTFTSDYSKYLDEKRQKEFVNWLLAQC (bridge 15-19) [trigonal agonist of SEQ ID NO: 86] | 0.4%
31 | {Acetyl(2-(4-imidazolyl))}-[Aib]QGTFTSDYSKYLDEKRQKEFVQWLLDTC (bridge 15-19) [trigonal agonist of SEQ ID NO: 82] | 1.1%
32 | Y[Aib]QGTFTSDYSKYLDEKRAKEFVQWLLCHHPSSGQPPPS (bridge 16-20) [trigonal agonist of SEQ ID NO: 95] | 0.4%
33 | H[Aib]QGTFTSDVSKYLDGQAAQEFVAWLLAGGGPSSGAPPPSC [trigonal agonist of SEQ ID NO: 10] | < 0.1%
34 | {Acetyl(2-(4-imidazolyl))}-[Aib]QGTFTSDYSKYLDEKRQKEFVQWLLNTC (bridge 15-19) [trigonal agonist of SEQ ID NO: 81] | 0.3%
35 | {Acetyl(2-(4-imidazolyl))}-[Aib]QGTFTSDYSIAMDEIHQKDFVNWLLAQC (bridge 15-19) [trigonal agonist of SEQ ID NO: 85] | < 0.1%
36 | {Acetyl(2-(4-imidazolyl))}-[Aib]QGTFTSDYSIAMDEIHQKDFVNWLLNTKC (bridge 15-19) [trigonal agonist of SEQ ID NO: 94] | < 0.1%
37 | H[Aib]EGTFTSDYSIAMDEIHQKDFVDWLLAEKC (bridge 16-20) [trigonal agonist of SEQ ID NO: 80] | 0%
38 | {Acetyl(2-(4-imidazolyl))}-[Aib]QGTFTSDYSIAMDEIHQKDFVNWLLAQKC (bridge 15-19) [trigonal agonist of SEQ ID NO: 92] | < 0.1%

molecular target: T1, human GIP receptor (human, UniProt P48546 22-466); experiment: cell-based or functional assay
T1 sequence (looked up): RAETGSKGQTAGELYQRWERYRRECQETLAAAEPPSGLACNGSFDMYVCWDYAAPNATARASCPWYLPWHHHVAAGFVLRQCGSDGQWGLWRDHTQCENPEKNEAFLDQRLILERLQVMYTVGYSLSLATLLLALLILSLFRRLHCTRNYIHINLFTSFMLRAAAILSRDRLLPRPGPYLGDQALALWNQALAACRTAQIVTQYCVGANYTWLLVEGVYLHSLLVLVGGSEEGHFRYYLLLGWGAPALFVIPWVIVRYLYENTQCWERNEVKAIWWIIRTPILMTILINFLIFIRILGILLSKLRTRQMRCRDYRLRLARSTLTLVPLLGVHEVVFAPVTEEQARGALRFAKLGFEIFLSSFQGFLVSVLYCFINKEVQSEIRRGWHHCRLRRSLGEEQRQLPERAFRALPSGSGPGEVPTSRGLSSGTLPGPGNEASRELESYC

Row | Binder | In vitro activity relative to native peptide (%), vs. GIP (cAMP EC50)
39 | {Acetyl(2-(4-imidazolyl))}-[Aib]EGTFTSDYSIAMDEIHQKDFVDWLLAEC (bridge 15-19) [trigonal agonist of SEQ ID NO: 84] | < 0.1%
40 | {Acetyl(2-(4-imidazolyl))}-[Aib]QGTFTSDYSKYLDEKRQKEFVQWLLDTKC (bridge 15-19) [trigonal agonist of SEQ ID NO: 89] | < 0.1%
41 | {Acetyl(2-(4-imidazolyl))}-[Aib]QGTFTSDYSKYLDEKRQKEFVNWLLAQKC (bridge 15-19) [trigonal agonist of SEQ ID NO: 93] | 0.7%
42 | {Acetyl(2-(4-imidazolyl))}-[Aib]QGTFTSDYSIAMDEIHQKDFVNWLLNTC (bridge 15-19) [trigonal agonist of SEQ ID NO: 87] | < 0.1%
43 | {Acetyl(2-(4-imidazolyl))}-[Aib]EGTFTSDYSIAMDEIHQKDFVNWLLAQC (bridge 15-19) [trigonal agonist of SEQ ID NO: 83] | 0.4%
44 | Y[Aib]QGTFTSDYSKYLDEKRAKEFVQWLLDHCPSSGQPPPS (bridge 16-20) [trigonal agonist of SEQ ID NO: 96] | 5.2%
45 | {Acetyl(2-(4-imidazolyl))}-[Aib]EGTFTSDYSIAMDEIHQKDFVNWLLAQKC (bridge 15-19) [trigonal agonist of SEQ ID NO: 90] | < 0.1%
46 | H[Aib]QGTFTSDVSKYLDGQAAQEFVAWLLAGC [trigonal agonist of SEQ ID NO: 9] | < 0.1%
47 | {Acetyl(2-(4-imidazolyl))}-[Aib]QGTFTSDYSKYLDEKRQKEFVQWLLNTKC (bridge 15-19) [trigonal agonist of SEQ ID NO: 88] | < 0.1%
48 | {Acetyl(2-(4-imidazolyl))}-[Aib]EGTFTSDYSIAMDEIHQKDFVDWLLAEKC (bridge 15-19) [trigonal agonist of SEQ ID NO: 91] | 0.3%
49 | {Acetyl(2-(4-imidazolyl))}-[Aib]QGTFTSDYSKYLDEKRQKEFVNWLLAQC (bridge 15-19) [trigonal agonist of SEQ ID NO: 86] | 0.2%
50 | {Acetyl(2-(4-imidazolyl))}-[Aib]QGTFTSDYSKYLDEKRQKEFVQWLLDTC (bridge 15-19) [trigonal agonist of SEQ ID NO: 82] | < 0.1%
51 | Y[Aib]QGTFTSDYSKYLDEKRAKEFVQWLLCHHPSSGQPPPS (bridge 16-20) [trigonal agonist of SEQ ID NO: 95] | < 0.1%
52 | H[Aib]QGTFTSDVSKYLDGQAAQEFVAWLLAGGGPSSGAPPPSC [trigonal agonist of SEQ ID NO: 10] | < 0.1%
53 | {Acetyl(2-(4-imidazolyl))}-[Aib]QGTFTSDYSKYLDEKRQKEFVQWLLNTC (bridge 15-19) [trigonal agonist of SEQ ID NO: 81] | < 0.1%
54 | {Acetyl(2-(4-imidazolyl))}-[Aib]QGTFTSDYSIAMDEIHQKDFVNWLLAQC (bridge 15-19) [trigonal agonist of SEQ ID NO: 85] | 0.3%
55 | {Acetyl(2-(4-imidazolyl))}-[Aib]QGTFTSDYSIAMDEIHQKDFVNWLLNTKC (bridge 15-19) [trigonal agonist of SEQ ID NO: 94] | < 0.1%
56 | H[Aib]EGTFTSDYSIAMDEIHQKDFVDWLLAEKC (bridge 16-20) [trigonal agonist of SEQ ID NO: 80] | 0.1%
57 | {Acetyl(2-(4-imidazolyl))}-[Aib]QGTFTSDYSIAMDEIHQKDFVNWLLAQKC (bridge 15-19) [trigonal agonist of SEQ ID NO: 92] | 0.4%
